Results on 2 substances are retold here after doi:10.1101/2025.08.04.668557.

Broadly, the Kd is the constant that tells how readily two partners part at equilibrium.

In data set [1] the test system is Nsp1 full-length (6His-Nsp1) (SARS-CoV-2). Put plainly: MST. The conditions noted are these: assay buffer not stated ([…].
For data set [2], the system named is Nsp1 N127 (6His-Nsp1(N127)) (SARS-CoV-2). Briefly: MST. The following applies: assay buffer not stated ([…].

Consider CoV2 5' UTR 1-50 RNA, for which the Kd amounted to 6.3 µM in data set [1] and 77.8 µM in data set [2].

With TIAR 5' UTR 1-50 RNA, the Kd in data set [1] is 4.23 µM; in data set [2], 112 µM.
